Reference: the supplement of paper PMC5998384

Tests used:
[1] = system: HeLa Kyoto; assay: solubility in G1/S (NP-40 vs SDS abundance) (log2 ratio); higher = more soluble; conditions: cell cycle stage: G1/S
[2] = system: HeLa Kyoto; assay: melting temperature (median over replicates), in situ; higher = more thermally stable
[3] = system: HeLa Kyoto; assay: solubility change mitosis vs G1/S (difference of NP-40 vs SDS log2 ratios) (log2 ratio difference); higher = more soluble in mitosis
[4] = system: HeLa Kyoto; assay: thermal stability score vs G1/S (z-score of summed log2 fold changes over temperatures); higher = more thermally stable than in G1/S
[5] = cell cycle stage: early G1 (4.5 h after nocodazole release)
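For melting temperature (median over replicates), in situ in this document: HeLa Kyoto cells synchronized by double thymidine or nocodazole block, proteins quantified by TMT10plex mass spectrometry, three independent biological replicates.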
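For solubility change mitosis vs G1/S (difference of NP-40 vs SDS log2 ratios) in this document: synchronized HeLa Kyoto cells (double thymidine block for G1/S, nocodazole release for mitosis), protein amounts in NP-40 versus SDS lysates quantified by mass spectrometry, three biological replicates.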
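For solubility in G1/S (NP-40 vs SDS abundance) in this document: HeLa Kyoto cells arrested at G1/S by double thymidine block, proteins quantified by TMT10plex mass spectrometry in mild NP-40 versus SDS extracts, three biological replicates.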
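For thermal stability score vs G1/S (z-score of summed log2 fold changes over temperatures) in this document: synchronized HeLa Kyoto cells, proteins quantified by TMT10plex mass spectrometry, three biological replicates, mitosis taken 0.5 h after nocodazole release, G1/S directly after double thymidine block.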

Substance | solubility in G1/S (log2) [1] | melting temperature ([2]; cell cycle stage: G1/S) [°C] | melting temperature ([2]; cell cycle stage: mitosis) [°C] | solubility change mitosis (log2) [3] | thermal stability score [4, 5] | thermal stability score ([4]; cell cycle stage: mitosis)
MASPVAAQAGKLLRALALRPRFLAAGSQAVQLTSRRWLNLQEYQSKKLMSDNGVRVQRFFVADTANEALEAAKRLNAKEIVLKAQILAGGRGKGVFNSGLKGGVHLTKDPNVVGQLAKQMIGYNLATKQTPKEGVKVNKVMVAEALDISRETYLAILMDRSCNGPVLVGSPQGGVDIEEVAASNPELIFKEQIDIFEGIKDSQAQRMAENLGFVGPLKSQAADQITKLYNLFLKIDATQVEVNPFGETPEGQVVCFDAKINFDDNAEFRQKDIFAMDDKSENEPIENEAAKYDLKYIGLDGNIACFVNGAGLAMATCDIIFLNGGKPANFLDLGGGVKEAQVYQAFKLLTADPKVEAILVNIFGGIVNCAIIANGITKACRELELKVPLVVRLEGTNVQEAQKILNNSGLPITSAIDLEDAAKKAVASVAKK [SUCLG2] | 0.383 | 51.3 | 51.2 | -0.104 | 0.0772 | 0.0477
MVELMFPLLLLLLPFLLYMAAPQIRKMLSSGVCTSTVQLPGKVVVVTGANTGIGKETAKELAQRGARVYLACRDVEKGELVAKEIQTTTGNQQVLVRKLDLSDTKSIRAFAKGFLAEEKHLHVLINNAGVMMCPYSKTADGFEMHIGVNHLGHFLLTHLLLEKLKESAPSRIVNVSSLAHHLGRIHFHNLQGEKFYNAGLAYCHSKLANILFTQELARRLKGSGVTTYSVHPGTVQSELVRHSSFMRWMWWLFSFFIKTPQQGAQTSLHCALTEGLEILSGNHFSDCHVAWVSAQARNETIARRLWDVSCDLLGLPID [RDH11] | -0.0695 | 49.5 | 50.2 | -0.137 | -0.184 | 0.26
ARHGEF5 | 0.0254 | 50.6 | 51.4 | -0.0134 | 0.0128 | 1.32
MIEQQKRKGPELPLVPVKRQRHELLLGAGSGPGAGQQQATPGALLQAGPPRCSSLQAPIMLLSGHEGEVYCCKFHPNGSTLASAGFDRLILLWNVYGDCDNYATLKGHSGAVMELHYNTDGSMLFSASTDKTVAVWDSETGERVKRLKGHTSFVNSCYPARRGPQLVCTGSDDGTVKLWDIRKKAAIQTFQNTYQVLAVTFNDTSDQIISGGIDNDIKVWDLRQNKLTYTMRGHADSVTGLSLSSEGSYLLSNAMDNTVRVWDVRPFAPKERCVKIFQGNVHNFEKNLLRCSWSPDGSKIAAGSADRFVYVWDTTSRRILYKLPGHAGSINEVAFHPDEPIIISASSDKRLYMGEIQ [SNRNP40] | -1.09 | 49.9 | 50.7 | 0.366 | -0.469 | -0.465
MSELEQLRQEAEQLRNQIQDARKACNDATLVQITSNMDSVGRIQMRTRRTLRGHLAKIYAMHWGYDSRLLVSASQDGKLIIWDSYTTNKMHAIPLRSSWVMTCAYAPSGNYVACGGLDNICSIYNLKTREGNVRVSRELPGHTGYLSCCRFLDDSQIVTSSGDTTCALWDIETAQQTTTFTGHSGDVMSLSLSPDMRTFVSGACDASSKLWDIRDGMCRQSFTGHVSDINAVSFFPNGYAFATGSDDATCRLFDLRADQELLLYSHDNIICGITSVAFSKSGRLLLAGYDDFNCNVWDTLKGDRAGVLAGHDNRVSCLGVTDDGMAVATGSWDSFLRIWN [GNB4] | -0.287 | 55.6 | 56.7 | -0.13 | -1.5 | -0.567
MAAAGGGGGGAAAAGRAYSFKVVLLGEGCVGKTSLVLRYCENKFNDKHITTLQASFLTKKLNIGGKRVNLAIWDTAGQERFHALGPIYYRDSNGAILVYDITDEDSFQKVKNWVKELRKMLGNEICLCIVGNKIDLEKERHVSIQEAESYAESVGAKHYHTSAKQNKGIEELFLDLCKRMIETAQVDERAKGNGSSQPGTARRGVQIIDDEPQAQTSGGGCCSSG [RAB21] | 0.158 | 60.4 | 60.5 | -0.0826 | -1.73 | -1.92
USP34 | -0.314 | 49.5 | 50.2 | -0.0816 | 0.493 | 1.73
MKIFVGNVDGADTTPEELAALFAPYGTVMSCAVMKQFAFVHMRENAGALRAIEALHGHELRPGRALVVEMSRPRPLNTWKIFVGNVSAACTSQELRSLFERRGRVIECDVVKDYAFVHMEKEADAKAAIAQLNGKEVKGKRINVELSTKGQKKGPGLAVQSGDKTKKPGAGDTAFPGTGGFSATFDYQQAFGNSTGGFDGQARQPTPPFFGRDRSPLRRSPPRASYVAPLTAQPATYRAQPSVSLGAAYRAQPSASLGVGYRTQPMTAQAASYRAQPSVSLGAPYRGQLASPSSQSAAASSLGPYGGAQPSASALSSYGGQAAAASSLNSYGAQGSSLASYGNQPSSYGAQAASSYGVRAAASSYNTQGAASSLGSYGAQAASYGAQSAASSLAYGAQAASYNAQPSASYNAQSAPYAAQQAASYSSQPAAYVAQPATAAAYASQPAAYAAQATTPMAGSYGAQPVVQTQLNSYGAQASMGLSGSYGAQSAAAATGSYGAAAAYGAQPSATLAAPYRTQSSASLAASYAAQQHPQAAASYRGQPGNAYDGAGQPSAAYLSMSQGAVANANSTPPPYERTRLSPPRASYDDPYKKAVAMSKRYGSDRRLAELSDYRRLSESQLSFRRSPTKSSLDYRRLPDAHSDYARYSGSYNDYLRAAQMHSGYQRRM [RBM14] | -0.765 | 47.3 | 46.1 | 0.332 | 1.48 | 2.24
MAAFLKMSVSVNFFRPFTRFLVPFTLHRKRNNLTILQRYMSSKIPAVTYPKNESTPPSEELELDKWKTTMKSSVQEECVSTISSSKDEDPLAATREFIEMWRLLGREVPEHITEEELKTLMECVSNTAKKKYLKYLYTKEKVKKARQIKKEMKAAAREEAKNIKLLETTEEDKQKNFLFLRLWDRNMDIAMGWKGAQAMQFGQPLVFDMAYENYMKRKELQNTVSQLLESEGWNRRNVDPFHIYFCNLKIDGALHRELVKRYQEKWDKLLLTSTEKSHVDLFPKDSIIYLTADSPNVMTTFRHDKVYVIGSFVDKSMQPGTSLAKAKRLNLATECLPLDKYLQWEIGNKNLTLDQMIRILLCLKNNGNWQEALQFVPKRKHTGFLEISQHSQEFINRLKKAKT [TRMT10C] | -0.0196 | 51.3 | 51.9 | -0.114 | 0.276 | 0.67
MQWNVPRTVSRLARRTCLEPHNAGLFGHCQNVKGPLLLYNAESKVVLVQGPQKQWLHLSAAQCVAKERRPLDAHPPQPGVLRHKQGKQHVSFRRVFSSSATAQGTPEKKEEPDPLQDKSISLYQRFKKTFRQYGKVLIPVHLITSGVWFGTFYYAALKGVNVVPFLELIGLPDSVVSILKNSQSGNALTAYALFKIATPARYTVTLGGTSVTVKYLRSHGYMSTPPPVKEYLQDRMEETKELITEKMEETKDRLTEKLQETKEKVSFKKKVE [FAM210A] | 0.234 | 55.7 | 54.9 | -0.102 | -3.65 | -2.22
MSFFNFRKIFKLGSEKKKKQYEHVKRDLNPEDFWEIIGELGDGAFGKVYKAQNKETSVLAAAKVIDTKSEEELEDYMVEIDILASCDHPNIVKLLDAFYYENNLWILIEFCAGGAVDAVMLELERPLTESQIQVVCKQTLDALNYLHDNKIIHRDLKAGNILFTLDGDIKLADFGVSAKNTRTIQRRDSFIGTPYWMAPEVVMCETSKDRPYDYKADVWSLGITLIEMAEIEPPHHELNPMRVLLKIAKSEPPTLAQPSRWSSNFKDFLKKCLEKNVDARWTTSQLLQHPFVTVDSNKPIRELIAEAKAEVTEEVEDGKEEDEEEETENSLPIPASKRASSDLSIASSEEDKLSQNACILESVSEKTERSNSEDKLNSKILNEKPTTDEPEKAVEDINEHITDAQLEAMTELHDRTAVIKENEREKRPKLENLPDTEDQETVDINSVSEGKENNIMITLETNIEHNLKSEEEKDQEKQQMFENKLIKSEEIKDTILQTVDLVSQETGEKEANIQAVDSEVGLTKEDTQEKLGEDDKTQKDVISNTSDVIGTCEAADVAQKVDEDSAEDTQSNDGKEVVEVGQKLINKPMVGPEAGGTKEVPIKEIVEMNEIEEGKNKEQAINSSENIMDINEEPGTTEGEEITESSSTEEMEVRSVVADTDQKALGSEVQDASKVTTQIDKEKKEIPVSIKKEPEVTVVSQPTEPQPVLIPSININSDSGENKEEIGSLSKTETILPPESENPKENDNDSGTGSTADTSSIDLNLSISSFLSKTKDSGSISLQETRRQKKTLKKTRKFIVDGVEVSVTTSKIVTDSDSKTEELRFLRRQELRELRFLQKEEQRAQQQLNSKLQQQREQIFRRFEQEMMSKKRQYDQEIENLEKQQKQTIERLEQEHTNRLRDEAKRIKGEQEKELSKFQNMLKNRKKEVINEVEKAPKELRKELMKRRKEELAQSQHAQEQEFVQKQQQELDGSLKKIIQQQKAELANIERECLNNKQQLMRAREAAIWELEERHLQEKHQLLKQQLKDQYFMQRHQLLKRHEKETEQMQRYNQRLIEELKNRQTQERARLPKIQRSEAKTRMAMFKKSLRINSTATPDQDRDKIKQFAAQEEKRQKNERMAQHQKHENQMRDLQLQCEANVRELHQLQNEKCHLLVEHETQKLKELDEEHSQELKEWREKLRPRKKTLEEEFARKLQEQEVFFKMTGESECLNPSTQSRISKFYPIPSLHSTGS | 0.0156 | 50.2 | 49.9 | -0.139 | -0.208 | 0.991
MSSESSKKRKPKVIRSDGAPAEGKRNRSDTEQEGKYYSEEAEVDLRDPGRDYELYKYTCQELQRLMAEIQDLKSRGGKDVAIEIEERRIQSCVHFMTLKKLNRLAHIRLKKGRDQTHEAKQKVDAYHLQLQNLLYEVMHLQKEITKCLEFKSKHEEIDLVSLEEFYKEAPPDISKAEVTMGDPHQQTLARLDWELEQRKRLAEKYRECLSNKEKILKEIEVKKEYLSSLQPRLNSIMQASLPVQEYLFMPFDQAHKQYETARHLPPPLYVLFVQATAYGQACDKTLSVAIEGSVDEAKALFKPPEDSQDDESDSDAEEEQTTKRRRPTLGVQLDDKRKEMLKRHPLSVMLDLKCKDDSVLHLTFYYLMNLNIMTVKAKVTTAMELITPISAGDLLSPDSVLSCLYPGDHGKKTPNPANQYQFDKVGILTLSDYVLELGHPYLWVQKLGGLHFPKEQPQQTVIADHSLSASHMETTMKLLKTRVQSRLALHKQFASLEHGIVPVTSDCQYLFPAKVVSRLVKWVTVAHEDYMELHFTKDIVDAGLAGDTNLYYMALIERGTAKLQAAVVLNPGYSSIPPVFQLCLNWKGEKTNSNDDNIRAMEGEVNVCYKELCGPWPSHQLLTNQLQRLCVLLDVYLETESHDDSVEGPKEFPQEKMCLRLFRGPSRMKPFKYNHPQGFFSHR [THOC5] | -0.323 | 51.4 | 50.4 | 0.281 | 0.533 | 0.546
MREYKVVVLGSGGVGKSALTVQFVTGTFIEKYDPTIEDFYRKEIEVDSSPSVLEILDTAGTEQFASMRDLYIKNGQGFILVYSLVNQQSFQDIKPMRDQIVRVKRYEKVPLILVGNKVDLEPEREVMSSEGRALAQEWGCPFMETSAKSKSMVDELFAEIVRQMNYSSLPEKQDQCCTTCVVQ [RAP2C] | 0.0732 | 56.9 | 55.4 | -0.0697 | 1.5 | -1.73
MAGDVGGRSCTDSELLLHPELLSQEFLLLTLEQKNIAVETDVRVNKDSLTDLYVQHAIPLPQRDLPKNRWGKMMEKKREQHEIKNETKRSSTVDGLRKRPLIVFDGSSTSTSIKVKKTENGDNDRLKPPPQASFTSNAFRKLSNSSSSVSPLILSSNLPVNNKTEHNNNDAKQNHDLTHRKSPSGPVKSPPLSPVGTTPVKLKRAAPKEEAEAMNNLKPPQAKRKIQHVTWP [C2ORF49] | 0.348 | 50.3 | 51.3 | 0.015 | -1.3 | -1.02
THOC2 | -0.681 | 48.6 | 49.5 | 0.221 | -3.49 | -0.552
